Molecular target: RSC chromatin remodeling complex (S. cerevisiae) (UniProt P32597)
Experiment: BLI

UniProt P32597, sequence (P32597 whole entry, looked up, one chain of several): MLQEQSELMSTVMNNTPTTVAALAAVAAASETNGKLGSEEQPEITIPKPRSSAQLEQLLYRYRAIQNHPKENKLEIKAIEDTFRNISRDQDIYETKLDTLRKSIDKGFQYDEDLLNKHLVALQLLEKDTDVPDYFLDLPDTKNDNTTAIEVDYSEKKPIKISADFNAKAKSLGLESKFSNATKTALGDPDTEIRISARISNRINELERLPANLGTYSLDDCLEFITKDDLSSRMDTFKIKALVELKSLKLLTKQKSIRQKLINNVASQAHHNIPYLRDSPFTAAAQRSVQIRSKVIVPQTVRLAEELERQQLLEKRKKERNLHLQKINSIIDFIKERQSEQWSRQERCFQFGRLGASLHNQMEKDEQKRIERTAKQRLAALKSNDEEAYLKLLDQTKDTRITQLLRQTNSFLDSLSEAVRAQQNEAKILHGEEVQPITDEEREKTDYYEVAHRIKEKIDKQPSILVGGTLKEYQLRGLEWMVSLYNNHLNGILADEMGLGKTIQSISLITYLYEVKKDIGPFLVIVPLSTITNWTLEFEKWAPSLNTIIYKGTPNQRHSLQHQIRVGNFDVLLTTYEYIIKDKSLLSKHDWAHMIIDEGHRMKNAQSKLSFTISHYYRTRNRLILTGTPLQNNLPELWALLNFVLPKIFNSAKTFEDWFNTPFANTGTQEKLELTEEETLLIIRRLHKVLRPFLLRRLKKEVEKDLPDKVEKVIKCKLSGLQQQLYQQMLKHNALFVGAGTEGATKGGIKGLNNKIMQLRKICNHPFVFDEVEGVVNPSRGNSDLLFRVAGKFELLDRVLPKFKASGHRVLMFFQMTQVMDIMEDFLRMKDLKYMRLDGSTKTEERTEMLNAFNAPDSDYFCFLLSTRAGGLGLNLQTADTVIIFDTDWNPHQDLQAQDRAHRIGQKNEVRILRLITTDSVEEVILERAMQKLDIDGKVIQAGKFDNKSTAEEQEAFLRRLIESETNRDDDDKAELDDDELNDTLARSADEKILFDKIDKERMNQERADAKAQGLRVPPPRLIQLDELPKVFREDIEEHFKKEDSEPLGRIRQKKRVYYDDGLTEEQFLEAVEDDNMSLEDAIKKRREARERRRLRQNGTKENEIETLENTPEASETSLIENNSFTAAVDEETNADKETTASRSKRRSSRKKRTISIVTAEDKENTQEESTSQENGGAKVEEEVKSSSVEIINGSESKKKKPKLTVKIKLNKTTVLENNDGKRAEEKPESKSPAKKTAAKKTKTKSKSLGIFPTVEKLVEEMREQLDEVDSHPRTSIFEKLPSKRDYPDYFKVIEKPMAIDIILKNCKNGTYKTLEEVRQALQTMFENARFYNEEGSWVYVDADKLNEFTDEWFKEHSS

fold higher affinity than for unmodified nucleosomes: 2 fold
Substance: SUMOylated nucleosome with an in-frame fusion of SUMO to H2B (from UniProt P02281 6-126) (complex)

Reference: publication PMC7334588
